{
  "source": "paper PMC7697860",
  "key": {"[1]": {"target": "GST-PfPV1 (wheat germ cell-free expression) (Plasmodium falciparum 3D7)", "assay": "SPR; […] (amine coupling), […]; Biacore X100, single-cycle kinetics, 1:1; HBS-EP+ (10 mM HEPES pH 7.4, 150 mM NaCl, 3 mM EDTA, 0.05% P20)"}, "[2]": {"target": "GST-PfPV1 (wheat germ cell-free expression) (Plasmodium falciparum 3D7)", "assay": "SPR; […] (amine coupling), […]; Biacore X100, single-cycle kinetics, 1:1; HBS-EP+ (10 mM HEPES pH 7.4, 150 mM NaCl, 3 mM EDTA, 0.05% P20)", "remark": "listed apart in the source"}},
  "note": "Read-outs that look alike come from different tables or passages of the source.",
  "data": [
    {"substance": "GST-EXP2 (natural protein)", "values": [
      {"measurement": "Kd", "setting": "[1]", "result": 110, "unit": "nM"},
      {"measurement": "koff", "setting": "[1]", "result": 0.000989, "unit": "s⁻¹"},
      {"measurement": "kon", "setting": "[1]", "result": 9030, "unit": "M⁻¹ s⁻¹"}
    ]},
    {"substance": "GST-HSP101 (natural protein)", "values": [
      {"measurement": "Kd", "setting": "[1]", "result": 10.5, "unit": "nM"},
      {"measurement": "koff", "setting": "[1]", "result": 0.000914, "unit": "s⁻¹"},
      {"measurement": "kon", "setting": "[1]", "result": 87000, "unit": "M⁻¹ s⁻¹"}
    ]},
    {"substance": "GST-PTEX150 (natural protein)", "values": [
      {"measurement": "Kd", "setting": "[1]", "result": 54.5, "unit": "nM"},
      {"measurement": "koff", "setting": "[1]", "result": 0.00204, "unit": "s⁻¹"},
      {"measurement": "kon", "setting": "[1]", "result": 37300, "unit": "M⁻¹ s⁻¹"},
      {"measurement": "Kd", "setting": "[2]", "result": 54.6, "unit": "nM"}
    ]}
  ]
}
